The values that follow come from article PMC6522505.

The target in the experiment is secCl (CG7589), Cys-loop ligand-gated ion channel subunit (Drosophila melanogaster).

“CG6927, Cys-loop ligand-gated ion channel subunit (natural protein)”: the shift in reversal potential in low chloride buffer, Xenopus oocytes co-expressing secCl and CG6927 was 53 mV.
